T1: full-length ABRA1, bacterially expressed (UniProt Q6UWZ7 1-409)
T1 sequence (looked up): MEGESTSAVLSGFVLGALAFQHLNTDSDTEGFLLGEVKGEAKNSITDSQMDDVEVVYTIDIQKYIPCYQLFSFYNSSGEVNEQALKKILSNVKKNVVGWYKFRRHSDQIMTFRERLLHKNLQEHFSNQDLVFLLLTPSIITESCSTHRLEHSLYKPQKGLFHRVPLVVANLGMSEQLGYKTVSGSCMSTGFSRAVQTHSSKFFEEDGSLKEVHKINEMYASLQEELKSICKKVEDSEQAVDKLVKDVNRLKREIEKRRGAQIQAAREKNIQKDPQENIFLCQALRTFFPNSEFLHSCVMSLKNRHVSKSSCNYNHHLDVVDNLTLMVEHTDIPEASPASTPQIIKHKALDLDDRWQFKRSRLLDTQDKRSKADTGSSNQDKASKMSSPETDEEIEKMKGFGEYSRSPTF

B1: ZMYM3 CT (amino acids 1000-1370), bacterially expressed (domain or fragment, human, UniProt Q14202 1000-1370, looked up)
chain: FPKNPLDINPSVDFLFDCGLVGPEDVSTEQDLPRTMRKGQKRLVLSESCSRDSMSSQPSCTGLNYSYGVNAWKCWVQSKYANGETSKGDELRFGPKPMRIKEDILACSAAELNYGLAQFVREITRPNGERYEPDSIYYLCLGIQQYLLENNRMVNIFTDLYYLTFVQELNKSLSTWQPTLLPNNTVFSRVEEEHLWECKQLGVYSPFVLLNTLMFFNTKFFGLQTAEEHMQLSFTNVVRQSRKCTTPRGTTKVVSIRYYAPVRQRKGRDTGPGKRKREDEAPILEQRENRMNPLRCPVKFYEFYLSKCPESLRTRNDVFYLQPERSCIAESPLWYSVIPMDRSMLESMLNRILAVREIYEELGRPGEEDLD

Legend:
[1] = target: B1; assay: pull-down
[2] = target: T1, full-length ABRA1, bacterially expressed; assay: pull-down

Row | Binder | binding result [1] | binding result [2]
1 | RAP80-AIR (amino acids 227-346), bacterially expressed (domain or fragment, UniProt Q96RL1 227-346, looked up) HTQCGKPQESTGRGSAFLKAVQGSGDTSRHCLPTLADAKGLQDTGGTVNYFWGIPFCPDGVDPNQYTKVILCQLEVYQKSLKMAQRQLLNKKGFGEPVLPRPPSLIQNECGQGEQASEKN | binds | –
2 | B1 | – | binds
